Test results from the supplement of paper PMC7125110.
± gives the standard error. For some assays here: This sample holds only a part of the variants without activity.

B1: glmS ribozyme (parent)
chain: AUAAAAGCGCCAGAACUACAGAAAUGUAGUUGACGAGGAGGAGGUUUAUCGAAUUUUCGGCGGAUGCCUCCAAA

Columns and labels:
Details in all cases: with glucosamine-6-phosphate
glucosamine-6-phosphate [1] = variants of: B1; assay: kcat; higher = faster cleavage; RNA array
How it was run: (§1)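 Sequenced MiSeq chips were the platform: E. coli RNA polymerase transcribed barcoded ribozyme variants on them in situ, and a hybridised Cy3 probe tracked these at 37 °C. After glucosamine-6-phosphate (40 μM to 10 mM) in HEPES/KCl/Mg(OAc)2 buffer was flowed in, tiles were imaged over ~14 h. Signals normalised to baseline and to non-cleaving reference variants were reduced to per-tile medians and fit to one- or two-exponential decays to obtain kobs. kcat and KM were derived through weighted Michaelis–Menten fits across concentrations.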

glucosamine-6-phosphate [2] = variants of: B1; assay: KM; higher = weaker cofactor use; RNA array
How it was run: as §1

glucosamine-6-phosphate [3] = variants of: B1; assay: self-cleavage kobs at 160 uM GlcN6P; higher = faster cleavage; RNA array
How it was run: as §1

glucosamine-6-phosphate [4] = variants of: B1; assay: self-cleavage kobs at 640 uM GlcN6P; higher = faster cleavage; RNA array
How it was run: as §1

glucosamine-6-phosphate [5] = variants of: B1; assay: self-cleavage kobs at 2500 uM GlcN6P; higher = faster cleavage; RNA array
How it was run: as §1

glucosamine-6-phosphate [6] = variants of: B1; assay: self-cleavage kobs at 10000 uM GlcN6P; higher = faster cleavage; RNA array
How it was run: as §1

glucosamine-6-phosphate [7] = variants of: B1; assay: self-cleavage kobs at 40 uM GlcN6P; higher = faster cleavage; RNA array
How it was run: as §1

Variant	kcat (glucosamine-6-phosphate [1]) [s⁻¹]	KM (glucosamine-6-phosphate [2]) [mM]	self-cleavage kobs at 160 uM GlcN6P (glucosamine-6-phosphate [3]) [s⁻¹]	self-cleavage kobs at 640 uM GlcN6P (glucosamine-6-phosphate [4]) [s⁻¹]	self-cleavage kobs at 2500 uM GlcN6P (glucosamine-6-phosphate [5]) [s⁻¹]	self-cleavage kobs at 10000 uM GlcN6P (glucosamine-6-phosphate [6]) [s⁻¹]	self-cleavage kobs at 40 uM GlcN6P (glucosamine-6-phosphate [7]) [s⁻¹]
C58A U69C	0.000112 ± 1.3e-05	0.64 ± 0.22	3.58e-05 ± 1.2e-05	4.91e-05 ± 1e-05	9.46e-05 ± 2.2e-05	0.000107 ± 1.5e-05	–
A12G U31C	0.000113 ± 7.3e-06	4.09 ± 0.63	–	–	4.42e-05 ± 9.5e-06	7.95e-05 ± 1.1e-05	–
G9U C61A	0.00139 ± 0.00021	1.5 ± 0.36	0.00013 ± 2.7e-05	0.000373 ± 5.1e-05	0.000927 ± 0.00013	0.00121 ± 0.00023	4.72e-05 ± 9.6e-06
A12G U55C	0.00114 ± 0.00024	4.74 ± 1.4	4.44e-05 ± 7.8e-06	0.000118 ± 1.7e-05	0.000461 ± 7.4e-05	0.000755 ± 9.7e-05	–
C58A A64C	< 1e-05	–	–	–	–	–	< 1e-05
G40U C71U	0.00842 ± 0.0008	1.49 ± 0.2	0.000742 ± 0.00011	0.00248 ± 0.00024	0.00464 ± 0.0005	0.00794 ± 0.00065	0.000232 ± 1.6e-05
U56G U65C	0.000622 ± 6.2e-05	6.8 ± 1	–	–	0.000169 ± 3.3e-05	0.000366 ± 0.00011	–
A12U A52U	0.00174 ± 0.00012	4.09 ± 0.49	7.11e-05 ± 2e-05	0.000233 ± 3.8e-05	0.000681 ± 9.8e-05	0.00123 ± 0.00011	–
C16A G32U	0.000568 ± 9.6e-05	6.39 ± 1.5	–	5.63e-05 ± 1e-05	0.000143 ± 2.8e-05	0.000363 ± 6.7e-05	–
A39G G44U	0.00229 ± 0.0007	6.34 ± 3	–	0.000198 ± 5e-05	0.000853 ± 0.00022	0.00136 ± 0.00023	–
U54G C68U C70A	6.79e-05 ± 7.7e-06	–	–	–	–	6.28e-05 ± 1.4e-05	–
C50A C58G	< 1e-05	–	–	–	–	< 1e-05	–
U31G G44U	0.000237 ± 6.3e-05	8.74 ± 3.6	–	–	4.98e-05 ± 1.3e-05	0.000129 ± 3e-05	–
U47G C61U	2.06e-05 ± 4.9e-06	–	–	–	–	–	< 1e-05
G44A U56A	0.00026 ± 6.2e-06	2.65 ± 0.15	–	4.93e-05 ± 1.6e-05	0.00013 ± 2.6e-05	0.000205 ± 2.9e-05	–
A12G U30G	8.75e-05 ± 7.1e-06	1.83 ± 0.51	–	–	5.48e-05 ± 8.9e-06	7.28e-05 ± 7.5e-06	< 1e-05
C11G G59U C68A	1.43e-05 ± 2.1e-06	–	–	–	–	–	–

Variant	kcat (glucosamine-6-phosphate [1]) [s⁻¹]	KM (glucosamine-6-phosphate [2]) [mM]	self-cleavage kobs at 160 uM GlcN6P (glucosamine-6-phosphate [3]) [s⁻¹]	self-cleavage kobs at 640 uM GlcN6P (glucosamine-6-phosphate [4]) [s⁻¹]	self-cleavage kobs at 2500 uM GlcN6P (glucosamine-6-phosphate [5]) [s⁻¹]	self-cleavage kobs at 10000 uM GlcN6P (glucosamine-6-phosphate [6]) [s⁻¹]	self-cleavage kobs at 40 uM GlcN6P (glucosamine-6-phosphate [7]) [s⁻¹]
C68A C71A	< 1e-05	–	< 1e-05	–	–	< 1e-05	–
U30G U46A G66C	0.000292 ± 0.00014	–	–	6.55e-05 ± 2.5e-05	0.00038 ± 8.8e-05	0.000218 ± 5.4e-05	–
C70U C71G	0.000124 ± 1e-05	0.242 ± 0.098	7e-05 ± 1.3e-05	8.39e-05 ± 8.3e-06	0.000118 ± 9.3e-06	0.00012 ± 1.1e-05	–
G32U U56A	0.00196 ± 0.00014	7.73 ± 0.9	3.3e-05 ± 1.3e-05	0.000156 ± 2.9e-05	0.000494 ± 7.9e-05	0.0011 ± 9.2e-05	–
A14U C71U	0.00742 ± 0.0032	–	0.000492 ± 8.1e-05	0.00138 ± 0.00019	0.00252 ± 0.00058	0.00786 ± 0.00099	0.000206 ± 3.1e-05
G29U U69G	5.24e-05 ± 1.4e-05	–	5.79e-05 ± 1.4e-05	7.49e-05 ± 1.7e-05	5.06e-05 ± 1.2e-05	–	–
G13A U30G	0.000441 ± 4.8e-05	6.05 ± 1.1	–	3.9e-05 ± 1e-05	0.000144 ± 3.3e-05	0.000271 ± 3.9e-05	–
G44A G66A	0.000681 ± 0.00022	–	4.37e-05 ± 1.7e-05	0.000259 ± 4.6e-05	0.000848 ± 0.00022	0.000527 ± 0.0001	–
A42C G66A	0.000322 ± 2.8e-05	1.09 ± 0.21	–	0.000125 ± 1.5e-05	0.000208 ± 2.9e-05	0.000305 ± 4.2e-05	–
C67U C70G	2.32e-05 ± 6.8e-06	–	–	2.59e-05 ± 9e-06	2.88e-05 ± 6.7e-06	–	–
C50G G59U C68G	8.8e-05 ± 8.6e-06	–	–	0.000101 ± 3e-05	0.000102 ± 2.2e-05	7.83e-05 ± 1.5e-05	6.82e-05 ± 2.8e-05
G13A G29A	0.000248 ± 8.5e-06	4.98 ± 0.32	–	–	8.32e-05 ± 1.2e-05	0.000165 ± 2.4e-05	–
A15C A33C	6.42e-05 ± 3.3e-06	1.9 ± 0.44	–	–	3.95e-05 ± 1.2e-05	5.37e-05 ± 6.3e-06	–
C16A G66C	6.9e-05 ± 1.7e-05	–	–	–	–	2.41e-05 ± 1.1e-05	< 1e-05
C8U A42U	< 1e-05	–	–	< 1e-05	–	–	–
U55G C71A	0.00224 ± 0.00065	0.528 ± 0.22	0.000541 ± 0.00013	0.00113 ± 0.00015	0.00315 ± 0.00085	–	0.000162 ± 2.2e-05
U30G G37C	1.26e-05 ± 3.7e-06	–	–	–	–	–	< 1e-05
